This note sets out measurements from the supplement of paper PMC12042874.

± gives the uncertainty stated by the source.

A short description of the data set: amyloid nucleation score (Sup35N fusion, yeast selection) (log enrichment); library NNK1; higher = more nucleation; inactive = no reads after selection. In a few lines:
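Nucleation score is defined as the DiMSum log enrichment of output over input reads, with centring on the mode score of non-aggregating sequences. A minimum of 100 input reads was required for each sequence. Reads came from Illumina sequencing of plasmid inserts from psi-negative yeast expressing Sup35N fused to peptides of 20 random codons, induced with 100 μM copper sulfate for 24 hours and grown 7 days at 30°C on medium lacking adenine and uracil.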
Take DPADAPMITRNVGTWAKQVP: the amyloid nucleation score came to 0.324 ± 0.97. The same measure for DPAHLSGWLLCSP: 0.624 ± 0.45; for DPCSVGFVPPMVLGSLGGDV: -0.248 ± 0.71.

Turning to DPHYL, the amyloid nucleation score result is “inactive”.

The substance DPICFYYYFLVN yielded an amyloid nucleation score of -2.01 ± 1.5. Next, DPLRMILVISFRMVRFIQWP: 0.072 ± 0.32.

In the case of DPQTGDGVLAMNKWEPYRGL, the amyloid nucleation score came to 0.697 ± 0.48. As to DQRRGFSMETSYTD, the amyloid nucleation score came out at 1.42 ± 0.71. Substance DRAGERMGIR gave an amyloid nucleation score of 0.13 ± 0.28. The same measure for DRFNCKCFVLSKVLCWYGVG: 0.851 ± 0.79; for DRKVGNHLFTRVCDEATMLM: 1.75 ± 0.41. DRRCLRYSLNCLLFRSIYYN yielded an amyloid nucleation score of 0.652 ± 1. For the substance DRRRNCYFIRLWQGLGYIS, the amyloid nucleation score result is “inactive”. On to DRSDDGHNESLWAVLMRHKV, for which the amyloid nucleation score came out at 0.315 ± 0.52. The same measure for DSCEW: -0.062 ± 0.58. Consider DSGLFSKVVMHDNPSSVDKL, for which the amyloid nucleation score is -0.123 ± 0.64.

The substance DSGWRWCNRSTSVGNVNVMR gave an amyloid nucleation score of 0.171 ± 0.43. DSKLLSPDFRGRLIYRIFDD yielded an amyloid nucleation score of -0.101 ± 0.46. For the substance DSLLEIGRSGVNELVGGLAD, the amyloid nucleation score was -0.422 ± 1.2. Turning to DSNFVTGWMTSIMLRVGVLR, the amyloid nucleation score was 0.514 ± 1.2. Next, DSPNVVQLLKYTLRYEARLG: 0.877 ± 0.16; DSRCGPM: “inactive”; DSTSDMLHLIIRTMISLISR: -0.257 ± 0.35. Next, DTGLRLD: 0.536 ± 0.54.

DTLIAWTGLVMFTSVERGCS showed an amyloid nucleation score of -0.299 ± 0.37. For the substance DTNQGYGVSGQIVKGRICFN, the amyloid nucleation score is -0.681 ± 0.47. Substance DTNTSIMHTIPRVGLNGCRR showed an amyloid nucleation score of 10.02 ± 0.051. Next, DTPNISAFYLWNLRKRLMIF: -0.023 ± 0.31. The same measure for DTQESSNIVRSLPRLVGLLG: 0.248 ± 0.43; for DTYKSPKHYRRL: 0.608 ± 0.64; for DVDTRRT: “inactive”. Next, DVFADGKVIQAYLM: -0.117 ± 0.39. Consider DVFGLLSIYYR, for which the amyloid nucleation score came to 1.1 ± 0.57. As for DVQQPPMDSISH, the amyloid nucleation score stood at 1.17 ± 0.57.

Turning to DWFLTLAKVYSLNGQVFRMR, the amyloid nucleation score result was “inactive”.

Consider DWGRLVYRFNCKDRNRDGAR, for which the amyloid nucleation score was found to be 0.177 ± 0.41.

DWMLISE registered an amyloid nucleation score of -0.084 ± 0.28.

For the substance DWSIDILYSVIRSPVNLINS, the amyloid nucleation score is -1.01 ± 0.52.

On to DWSRQFYMFVNVKARLFRGT, for which the amyloid nucleation score was -0.05 ± 0.69. As for DYAFKFCFQLVDKAYRSLSY, the amyloid nucleation score is -0.413 ± 0.27. The same measure for DYDTMSNFSDSALCTPIRCD: 0.485 ± 0.35; for DYFSRKPGNCFWFAIARDNT: -0.398 ± 1.2; for DYNIVYYNLYNTYINNYQSF: 7.72 ± 0.048. The substance DYRGTPNSWMIFMTPRGSLI came in with an amyloid nucleation score of -0.004 ± 1.1. The same measure for DYRGYFKSDIYSNFLTFLPG: -0.663 ± 0.22; for DYYLATCYLPYALNCLAFLN: -1.18 ± 0.97; for EAARMWSFNGNLSVFWIT: 5.72 ± 0.097.

In the case of EANMIYFLNGANLHRFFKHF, the amyloid nucleation score amounted to 1.59 ± 0.35. In turn, EAPGTKFCC displayed an amyloid nucleation score of 2.94 ± 0.1. For the substance EAPYISFVLIG, the amyloid nucleation score result was “inactive”. Take ECCQDVIFFVAQINTCIEVT: the amyloid nucleation score worked out at 0.221 ± 0.37. ECRVCL: the amyloid nucleation score was -0.807 ± 2.4. The same measure for ECVNLLR: 0.471 ± 0.25; for EDGPWACTCYYCGQGRRTWV: 0.16 ± 0.9; for EDGSQ: 0.532 ± 0.42. Consider EDSLPLDMEVNLGRIVEPKM, for which the amyloid nucleation score came to 1.14 ± 0.59. With EEQVDLIWLMYGAYHVCVMW, the amyloid nucleation score turned out to be 0.416 ± 0.43. The same measure for EERDFKEPSRLVIIKLTVMF: 3.18 ± 0.12; for EERVFVYRLWYQSLVRHYEL: -0.204 ± 0.41; for EESSPEAWSVRERTAGVFVF: -0.09 ± 0.86.

Regarding EFGASRNAYTMRRILENGSA, the amyloid nucleation score is -0.123 ± 0.38. The same measure for EFLMIQIVMGAPGCHKGTRR: 0.322 ± 0.47.

In turn, EFLRNGLIILIVSLSAGELS showed an amyloid nucleation score of 0.137 ± 0.23. EFQMLEFYRANLPSKSQNTL gave an amyloid nucleation score of -0.777 ± 0.43.

EFSSKMSRMM showed an amyloid nucleation score of 0.268 ± 1.2.

In the case of EGGRFKHRMNSCHYNSFGLH, the amyloid nucleation score is -0.255 ± 0.76. EGMAARSWDCMYVWG had an amyloid nucleation score of 0.35 ± 0.42. Next, EGRYTRDFKCRFSSERHSPS: 0.014 ± 0.47; EGSIMRGWLFICYNLF: -0.244 ± 0.93. For EHKWAANLDDMVHLDRHNMQ, the amyloid nucleation score worked out at 0.435 ± 0.72. EILIYNNYETFLVSFFEYGG registered an amyloid nucleation score of 4.21 ± 0.083. Substance EIVSIS showed an amyloid nucleation score of -0.42 ± 1.2. EKLTKTYGTRFNKVKLFL: the amyloid nucleation score worked out at 0.294 ± 0.41. Next, EKQCVVDFL: -1.26 ± 1.7; EKRFFVSLVNVYLDL: 4.57 ± 0.071. Substance EKWKKAAIWFFLSYWLAVWR gave an amyloid nucleation score of -0.301 ± 1.2.

ELFSAIPATIHCI returned an amyloid nucleation score of -0.057 ± 1.1. Next, ELGGVWN: 0.701 ± 0.58; ELLQD: 0.038 ± 0.59; ELSNRVRTEFVCIRTLVEDN: “inactive”. Next, ELTLGLCSYSVRRSCGEGSW: 6.62 ± 0.082; ELTYFGNI: 1.5 ± 0.24.

Consider EMALKVVMWC, for which the amyloid nucleation score entry was “inactive”. The same measure for EMIMVGSMYSRGNSTCFPRA: 0.777 ± 0.17. The same measure for EMRLCRPCREYLLKSPT: 0.31 ± 0.37. Take EMTPLLCATVRKPWKRVMIN: the amyloid nucleation score was -0.311 ± 0.73. Consider ENHSECNWRKCQQTLISHEC, for which the amyloid nucleation score is 0.487 ± 0.71. ENLVFTY: the amyloid nucleation score stood at 0.01 ± 0.28. ENNTGSVETLYRCSEKLVLE showed an amyloid nucleation score of 0.228 ± 0.27.

Substance ENTVDPLRLDWCSGTSVWYK returned an amyloid nucleation score of 0.54 ± 0.88. Take ENVAITMVLPSAKMGSYMDG: the amyloid nucleation score is 0.453 ± 1.2.

Take ENVYGWVG: the amyloid nucleation score is 1.09 ± 0.15. Consider EPIVLTVCCFSPKDVSQDLN, for which the amyloid nucleation score was 0.749 ± 0.56. Turning to EPVYISDWWTACEVADHVSL, the amyloid nucleation score entry is “inactive”.

EQFNT: the amyloid nucleation score is 0.323 ± 0.56. Next, EQVSKMGNTCMSVDRVRWQN: -0.411 ± 0.87; ERKRTFY: 0.536 ± 0.41. Next, ERRQSEKPGLLPSWS: 0.46 ± 1.2; ERVGAGVGSNERRD: 0.646 ± 0.89. In turn, ERYRFRGIKLHRGDSWRDIC had an amyloid nucleation score of 1.14 ± 0.71.

As for ESCVRYRSACSMFV, the amyloid nucleation score turned out to be 0.902 ± 0.47. For ESFLASMLRIGMCLPKQVMW, the amyloid nucleation score is -0.096 ± 0.66. Regarding ESHMRNHR, the amyloid nucleation score came to 0.312 ± 0.37. ESHRRR gave an amyloid nucleation score of 0.569 ± 0.62. Next, ESMDGFARR: 0.654 ± 0.67. The same measure for ESRKYWVNMVIGQDDRLVHP: “inactive”. Next, ESSGTFFP: -0.186 ± 0.9.

ESSNSLL gave an amyloid nucleation score of -0.244 ± 0.4. Take ETFNWLSCIVRRSQKYAEET: the amyloid nucleation score is -0.242 ± 1.2. On to ETFPYMRMYARALSRT, for which the amyloid nucleation score came out at 0.369 ± 0.39. Next, ETRANGVESFSTDLYMHFLD: 1.16 ± 0.36; EVATGSGERIQLCQVQSVNT: 1.6 ± 0.55. The substance EVENRFVCGNSDLSGNDANK registered an amyloid nucleation score of -0.489 ± 0.75. The same measure for EVPMVFRGNEGVSRDCSLVG: -0.469 ± 0.42; for EVVFNYTKHQVTIAV: “inactive”. EYLSDDGI returned an amyloid nucleation score of 0.131 ± 0.28. As to EYNQG, the amyloid nucleation score was -0.76 ± 1.2. Substance FACSFQSNLLDKKYTSLVNL showed an amyloid nucleation score of 0.051 ± 0.55. For the substance FAEFKDICMRE, the amyloid nucleation score came to 0.978 ± 0.74. The same measure for FAGSSGRCTPGSGFQGSIVT: -0.167 ± 0.33; for FAKVESLLWAGICTGRDEVM: -0.318 ± 0.46. The same measure for FAMTNFRYDLPQTHPLPRAV: -0.679 ± 0.54. FASLFYKLQASLFTLDNIMH showed an amyloid nucleation score of -0.006 ± 0.88. In the case of FCDILQVLVCYGLLKRVLKV, the amyloid nucleation score is -0.296 ± 0.3. Turning to FCKCNQVFISCLCGSTKHTG, the amyloid nucleation score came out at 3.59 ± 0.1.

FCLFKFDCSLSWPQVYRYRL came in with an amyloid nucleation score of 1.09 ± 0.36.

In turn, FCLSMVVDWVGR registered an amyloid nucleation score of -0.342 ± 0.31. The same measure for FCMVDYWVLVPCDEIGTDVV: 0.116 ± 0.46; for FCMWKGAFDRDYVGNGVAGS: “inactive”; for FCNTLCAFW: 1.91 ± 0.22. Substance FCNVQIFFAVITHPFYSTLL had an amyloid nucleation score of 1.48 ± 0.24.

With FCSLGKFGSRKCF, the amyloid nucleation score was determined as 1.07 ± 0.61. With FCSYLFMLATTLHQAWFHF, the amyloid nucleation score was 1.1 ± 0.72. FCVSTRRWGRAEYKRMDLLW had an amyloid nucleation score of 0.077 ± 1. Take FCVWIGKEGD: the amyloid nucleation score is 0.442 ± 0.51.

Regarding FCYIDMEFSFCLLSAEFISV, the amyloid nucleation score worked out at 0.03 ± 0.53. With FDCVMLISHHCVILCCFSDM, the amyloid nucleation score is 0.205 ± 1.1.

Regarding FDECGAGLLPTG, the amyloid nucleation score is -0.198 ± 0.41. As to FDGKLW, the amyloid nucleation score is -0.53 ± 0.61. Next, FDIDDIICIM: -1.89 ± 1.4; FDIMNDIK: 0.658 ± 0.52.
